Assay results: patent US10800847

How the values were obtained:
[1] = molecular target: HLA-Cw*0202 (Cw2) (human); test: Luminex, iBeads (#6), 1:8
HLA-B*1516 (B63) (human) [2] = test: iBead MFI against regular-bead MFI, IVIg diluted 1:8
[3] = molecular target: HLA-A*4301 (A43) single antigen on beads (human); test: Luminex single-antigen regular beads (#7), IVIg 1:8
[4] = molecular target: HLA-A*6602 (A66) single antigen on beads (human); test: Luminex, iBead vs regular bead, IVIg 1:8
[5] = molecular target: HLA-Cw*0401 (Cw4) (human); test: Luminex, iBeads (#6), 1:8
[6] = molecular target: HLA-A*7401 (A74) single antigen on Luminex beads (human); test: Luminex single antigen bead assay, iBeads vs regular beads, IVIg 1:8
[7] = molecular target: HLA-A*6802 (A68) single antigen on Luminex beads (human); test: as above
HLA-B*1501 (B62) (human) [8] = test: Luminex regular beads (#7), IVIg diluted 1:8
[9] = molecular target: HLA-A*7401 (A74) single antigen on Luminex beads (human); test: Luminex single antigen bead assay, iBeads (#6), IVIg 1:8
[10] = molecular target: HLA-A*4301 (A43) single antigen on beads (human); test: Luminex, iBead vs regular bead, IVIg 1:8
[11] = molecular target: HLA-Cw*0102 (Cw1) (human); test: Luminex, iBeads (#6), 1:8
[12] = molecular target: HLA-A*6802 (A68) single antigen on Luminex beads (human); test: Luminex single antigen bead assay, regular beads (#7), IVIg 1:8
[13] = molecular target: HLA-A*3002 (A30) single antigen on beads (human); test: Luminex, iBead vs regular bead, IVIg 1:8
[14] = molecular target: HLA-A*3201 (A32) single antigen on beads (human); test: Luminex, iBead vs regular bead, IVIg 1:8
[15] = molecular target: HLA-Cw*0801 (Cw8) (human); test: Luminex, regular beads (#7), 1:8
HLA-B*0702 (B7) (human) = test: Luminex iBeads (#6), IVIg diluted 1:4
HLA-B*1513 (B77) (human) = test: Luminex iBeads (#6), IVIg diluted 1:4
[16] = molecular target: Serum albumin on negative control beads (HSA/BSA) (human or bovine); test: Luminex iBeads (#6), IVIg diluted 1:4
HLA-B*1501 (B62) (human) [17] = test: Luminex iBeads (#6), IVIg diluted 1:4
HLA-B*1502 (B75) (human) = test: Luminex iBeads (#6), IVIg diluted 1:4
HLA-B*1516 (B63) (human) [18] = test: Luminex iBeads (#6), IVIg diluted 1:4
HLA-B*1511 (B75) (human) = test: Luminex iBeads (#6), IVIg diluted 1:4
HLA-B*1503 (B72) (human) = test: Luminex iBeads (#6), IVIg diluted 1:4
HLA-B*0801 (B8) (human) = test: Luminex iBeads (#6), IVIg diluted 1:4
[19] = molecular target: HLA-A*8001 (A80) single antigen on Luminex beads (human); test: Luminex single antigen bead assay, iBeads vs regular beads, IVIg 1:4
[20] = molecular target: HLA-A*6802 (A68) single antigen on Luminex beads (human); test: as above
[21] = molecular target: HLA-A*6901 (A69) single antigen on Luminex beads (human); test: as above
[22] = molecular target: HLA-B*4201 (B42) single antigen on Luminex beads (human); test: Luminex single antigen, iBeads (#6), IVIg 1:8
[23] = molecular target: HLA-B*3801 (B38) single antigen on Luminex beads (human); test: Luminex single antigen, iBeads (#6), IVIg 1:8
[24] = molecular target: HLA-B*4101 (B41) single antigen on Luminex beads (human); test: Luminex single antigen, iBeads (#6), IVIg 1:8
[25] = molecular target: HLA-B*4002 (B61) single antigen on Luminex beads (human); test: Luminex single antigen, iBeads (#6), IVIg 1:8
[26] = molecular target: HLA-B*3701 (B37) single antigen on Luminex beads (human); test: Luminex single antigen, iBeads (#6), IVIg 1:8
[27] = molecular target: HLA-B*4402 (B44) single antigen on Luminex beads (human); test: Luminex single antigen, iBeads (#6), IVIg 1:8
[28] = molecular target: HLA-B*4001 (B60) single antigen on Luminex beads (human); test: Luminex single antigen, iBeads (#6), IVIg 1:8
[29] = molecular target: HLA-B*2705 (B27) single antigen on Luminex beads (human); test: Luminex single antigen, iBeads (#6), IVIg 1:8
[30] = molecular target: HLA-B*4701 (B47) single antigen on Luminex beads (human); test: Luminex single antigen, iBeads (#6), IVIg 1:8
[31] = molecular target: HLA-B*3901 (B39) single antigen on Luminex beads (human); test: Luminex single antigen, iBeads (#6), IVIg 1:8
[32] = molecular target: HLA-B*4501 (B45) single antigen on Luminex beads (human); test: Luminex single antigen, iBeads (#6), IVIg 1:8
[33] = molecular target: HLA-B*4601 (B46) single antigen on Luminex beads (human); test: Luminex single antigen, iBeads (#6), IVIg 1:8
[34] = molecular target: HLA-B*2708 (B27) single antigen on Luminex beads (human); test: Luminex single antigen, iBeads (#6), IVIg 1:8
[35] = molecular target: HLA-B*4006 (B61) single antigen on Luminex beads (human); test: Luminex single antigen, iBeads (#6), IVIg 1:8
[36] = molecular target: HLA-B*4403 (B44) single antigen on Luminex beads (human); test: Luminex single antigen, iBeads (#6), IVIg 1:8
[37] = molecular target: HLA-B*3501 (B35) single antigen on Luminex beads (human); test: Luminex single antigen, iBeads (#6), IVIg 1:8

Row | MFI [1] [MFI] | Difference % (iBead vs regular bead) (HLA-B*1516 (B63) (human) [2]) [%] | MFI [3] [MFI] | Difference % (iBead MFI vs regular bead MFI) [4] [%] | MFI [5] [MFI] | Difference % (iBead MFI against regular bead MFI) [6] [%] | Difference % (iBead MFI against regular bead MFI) [7] [%] | MFI (HLA-B*1501 (B62) (human) [8]) [MFI] | MFI [9] [MFI] | Difference % (iBead MFI vs regular bead MFI) [10] [%] | MFI [11] [MFI] | MFI [12] [MFI] | Difference % (iBead MFI vs regular bead MFI) [13] [%] | Difference % (iBead MFI vs regular bead MFI) [14] [%] | MFI [15] [MFI] | further results | Substance
1 | 8100 | -7 | 1910 | 83 | – | – | – | – | – | – | – | – | – | – | – | – | IVIg GamaSTAN S/D (Talecris Biotherapeutics, USA) (antibody)
2 | – | -36 | – | 372 | 3730 | 486 | 228 | 0 | 3900 | 186 | – | – | – | – | – | – | IVIg Gamunex-C Lot NKLG1 (antibody)
3 | – | – | 1170 | – | – | – | 46 | 15 | 515 | – | 1060 | 1330 | 151 | 116 | 4540 | – | IVIg Gamunex-C Lot NKLK1 (antibody)
4 | 1840 | – | – | – | 2010 | -59 | – | – | – | -11 | 1780 | 1750 | -31 | -30 | 4420 | – | IVIg Octagam (Octapharma, Lachen, Switzerland) (antibody)
5 | – | – | – | – | – | – | – | – | – | – | – | – | – | – | – | MFI (HLA-B*0702 (B7) (human)): 436 MFI; MFI (HLA-B*1513 (B77) (human)): 445 MFI; MFI [16]: 667 MFI; MFI (HLA-B*1501 (B62) (human) [17]): 148 MFI; MFI (HLA-B*1502 (B75) (human)): 245 MFI; MFI (HLA-B*1516 (B63) (human) [18]): 756 MFI; MFI (HLA-B*1511 (B75) (human)): 552 MFI; MFI (HLA-B*1503 (B72) (human)): 0 MFI; MFI (HLA-B*0801 (B8) (human)): 274 MFI; Difference % (iBead MFI against regular bead MFI) [19]: 41%; Difference % (iBead MFI against regular bead MFI) [20]: 31%; Difference % (iBead MFI against regular bead MFI) [21]: 68% | IVIg Sandoglobulin (Novartis, Basel, Switzerland) (antibody)
6 | – | – | – | – | – | – | – | – | – | – | – | – | – | – | – | MFI [22]: 0 MFI; MFI [23]: 0 MFI; MFI [24]: 0 MFI; MFI [25]: 0 MFI; MFI [26]: 0 MFI; MFI [27]: 702 MFI; MFI [28]: 4 MFI; MFI [29]: 0 MFI; MFI [30]: 955 MFI; MFI [31]: 0 MFI; MFI [32]: 308 MFI; MFI [33]: 526 MFI; MFI [34]: 0 MFI; MFI [35]: 167 MFI; MFI [36]: 698 MFI; MFI [37]: 0 MFI | Octagam (IVIg, Octapharma, Lachen, Switzerland) (antibody)
